The record followed here is US10450355B2, “Lectins and uses thereof” (THE REGENTS OF THE UNIVERSITY OF MICHIGAN, priority 2014, dated 2019).

In data set [1] the test system is peripheral blood lymphocytes (PBL). The data set is described as follows: Mitogenic activity by BrdU incorporation. It is filed as cell-based. The conditions noted are these: for stimulation index (mitogenic activity): PBL, three days with lectin, BrdU, less than ten considered non-mitogenic; for mitogenicity, in words: relative to WT BanLec. Background: Dividing cells build labelled thymidine or BrdU into new DNA.

In data set [2] the target is T1, BanLec, recombinant wild type (rBanLec, codon-optimized cDNA from gi71042661, C-terminal 6×His tag) (Musa acuminata, UniProt O22321).
T1 sequence (O22321 1-141): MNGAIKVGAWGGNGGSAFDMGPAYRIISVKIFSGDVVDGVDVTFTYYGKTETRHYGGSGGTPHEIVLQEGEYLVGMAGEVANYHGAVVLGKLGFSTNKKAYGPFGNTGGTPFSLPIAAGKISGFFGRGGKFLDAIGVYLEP
The experiment in a line: Isothermal titration calorimetry, binding constants of lectin for sugar. The arrangement: species or system banana. The conditions noted are these: WT BanLec, ITC, 25° C., PBS, stoichiometry fixed at 1. A general note: In ITC the heat of successive injections is recorded.

Data set [3] has as its system the lectins (BanLec WT and H84T mutant). The experiment in a line: Isothermal titration calorimetry, general statement for the lectins. The conditions noted are these: ITC, 25° C., PBS; relatively low binding constants. The arrangement: species or system banana. How it is done:
Isothermal Titration Calorimetry
Binding constants of the lectins for methyl-α-D-mannopyranoside were determined by isothermal titration calorimetry using a MicroCal VP-ITC calorimeter (Micro-Cal, Northampton, Mass., USA) at 25° C. Data were analyzed using Origins Ver. 7 software supplied with the instrument. The lectin in PBS, generally at approx. 0.2 mM, was titrated with the ligand at 20 mM in the same buffer. The titration volumes were adjusted so that the titration proceeded to at least a 10-fold molar excess of ligand over lectin monomers. The relatively low binding constants (Ka<1000 M^−1) precluded obtaining full saturation or a definite sigmoidal titration curve from which a definitive stoichiometry can be calculated; thus, the stoichiometry was fixed at 1 for curve-fitting to determine Ka; values between about 0.5 and 2-3 had little effect on the Ka-value obtained.

Data set [4] concerns the target BanLec variant H84T (recombinant, 6×His tag). The data set is described as follows: biochemical. It is filed as binding, banana. Particulars: for Fold Change (Ka, WT vs H84T): WT compared with H84T.
Data set [5] deals with BanLec variant H84T (recombinant, 6×His tag) (Musa acuminata, UniProt O22321, H84T). The data set is described as follows: biochemical. It is filed as binding, banana.
The target of data set [6] is T2, BanLec, natural (banana-derived) (Musa acuminata, UniProt O22321).
T2 sequence (O22321 1-141): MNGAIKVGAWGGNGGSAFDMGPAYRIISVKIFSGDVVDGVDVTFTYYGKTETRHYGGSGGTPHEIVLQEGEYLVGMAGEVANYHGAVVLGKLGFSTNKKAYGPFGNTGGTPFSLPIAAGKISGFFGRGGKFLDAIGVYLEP
The experiment in a line: Isothermal titration calorimetry, natural BanLec compared with rBanLec. It is filed as binding. The conditions noted are these: ITC.

In data set [7] the test system is HIV-1 pseudo-typed virus. It is filed as cell-based. The conditions noted are these: for anti-HIV activity, in words: relative to WT BanLec.
In data set [8] the test system is formaldehyde-treated rabbit erythrocytes. The experiment in a line: Haemagglutination assay. It is filed as cell-based. The conditions noted are these: rabbit red blood cells.
Data set [9] relates to CD4+ peripheral blood mononuclear cells (PBMC). The data set is described as follows: Flow cytometry of activation marker CD69. It is filed as cell-based. Background: A flow cytometer gives signals particle by particle.
Data set [10] deals with PBMCs from healthy donors. The experiment in a line: Bio-Plex cytokine assay. The conditions noted are these: PBMC from multiple donors, 72 h. It is filed as cell-based, human.
Data set [11] deals with 1918 H1N1 pandemic influenza strain. It is filed as cell-based, influenza A virus.
Data set [12] deals with HIV-1 JR-CSF. It is filed as in vivo, BLT humanized mice. The conditions noted are these: 75 μg vaginally ten minutes before vaginal HIV-1 JR-CSF challenge; six weeks; p=0.0359 vs PBS.
Data set [13] concerns H5N1 avian influenza strain. It is filed as cell-based, influenza A virus.
A short description of data set [14]: Aggregation in solution during NMR studies. It is filed as physicochemical. The conditions noted are these: NMR samples.

For the molecule Griffithsin [reference compound], the “stimulation index (mitogenic activity)” value in [1] is on record as “less than ten”.

With `CO[C@H]1O[C@H](CO)[C@@H](O)[C@H](O)[C@@H]1O` [methyl-α-mannoside, Methyl α-d-mannopyranoside], in data set [2] (read-out: Ka (converted)), the Kd is 2.61 µM. The same molecule showed a Ka in [3] of less than 1000 M⁻¹. In addition, in data set [4], the “KD-values, rBanLec vs H84T” value is on record as “similar” and the “Fold Change (Ka, WT vs H84T)” value is 1.09. In addition, the Kd in data set [5] is 2.83 µM. The “affinity for the ligand, BanLec vs rBanLec” value in data set [6] is recorded as “no difference”.

Take `OC[C@H]1O[C@@H](O[C@H]2[C@H](O)[C@H](O)C(O)O[C@@H]2CO)[C@@H](O)[C@@H](O)[C@@H]1O` (some centres unmarked) [mannobiose]: the Ka in [2] came to 300 mM⁻¹; in data set [5] (H84T BanLec, ITC, 25° C., PBS, stoichiometry fixed at 1) it was 227 mM⁻¹. The “KD-values, rBanLec vs H84T” value in data set [4] is given as “similar”. Also, the “Fold Change (Ka, WT vs H84T)” value in [4] came to 1.32.

As for “GNA: Galanthus nivalis agglutinin, non-mitogenic negative control [reference compound]”, in data set [1], the “stimulation index (mitogenic activity)” value is listed as “less than ten”.

B1: D133G: BanLec mutant with a mutation in the first or second Greek Key sugar binding motif (protein)
chain: MNGAIKVGAWGGNGGSAFDMGPAYRIISVKIFSGDVVDGVDVTFTYYGKTETRHYGGSGGTPHEIVLQEGEYLVGMAGEVANYHGAVVLGKLGFSTNKKAYGPFGNTGGTPFSLPIAAGKISGFFGRGGKFLGAIGVYLEP
In the case of B1, the “mitogenicity, in words” value in data set [1] is “abolished the mitogenic activity”.

B2: H84D: BanLec mutant, H84 replaced by aspartic acid (protein)
chain: MNGAIKVGAWGGNGGSAFDMGPAYRIISVKIFSGDVVDGVDVTFTYYGKTETRHYGGSGGTPHEIVLQEGEYLVGMAGEVANYDGAVVLGKLGFSTNKKAYGPFGNTGGTPFSLPIAAGKISGFFGRGGKFLDAIGVYLEP
Take B2: the “anti-HIV activity, in words” value in data set [7] is on record as “marked loss”. In addition, the “mitogenicity, in words” value in data set [1] is on record as “marked loss”.

B3: H84E: BanLec mutant, H84 replaced by glutamic acid (protein)
chain: MNGAIKVGAWGGNGGSAFDMGPAYRIISVKIFSGDVVDGVDVTFTYYGKTETRHYGGSGGTPHEIVLQEGEYLVGMAGEVANYEGAVVLGKLGFSTNKKAYGPFGNTGGTPFSLPIAAGKISGFFGRGGKFLDAIGVYLEP
As for B3, the “anti-HIV activity, in words” value in [7] is “marked loss”. The “mitogenicity, in words” value in [1] is given as “marked loss”.

B4: H84Y: BanLec mutant, H84 replaced by tyrosine (protein)
chain: MNGAIKVGAWGGNGGSAFDMGPAYRIISVKIFSGDVVDGVDVTFTYYGKTETRHYGGSGGTPHEIVLQEGEYLVGMAGEVANYYGAVVLGKLGFSTNKKAYGPFGNTGGTPFSLPIAAGKISGFFGRGGKFLDAIGVYLEP
As to B4, the “anti-HIV activity, in words” value in [7] is recorded as “minimal effects”. In data set [1], the “mitogenicity, in words” value was “minimal effects”.

B5: H84G: BanLec mutant, H84 replaced by glycine (protein)
chain: MNGAIKVGAWGGNGGSAFDMGPAYRIISVKIFSGDVVDGVDVTFTYYGKTETRHYGGSGGTPHEIVLQEGEYLVGMAGEVANYGGAVVLGKLGFSTNKKAYGPFGNTGGTPFSLPIAAGKISGFFGRGGKFLDAIGVYLEP
In the case of B5, the “anti-HIV activity, in words” value in [7] is reported as “preserving some antiviral HIV activity”. Also, the “mitogenicity, in words” value in [1] is on record as “reasonably similar drop in mitogenicity as H84T”.

B6: H84K: BanLec mutant, H84 replaced by lysine (protein)
chain: MNGAIKVGAWGGNGGSAFDMGPAYRIISVKIFSGDVVDGVDVTFTYYGKTETRHYGGSGGTPHEIVLQEGEYLVGMAGEVANYKGAVVLGKLGFSTNKKAYGPFGNTGGTPFSLPIAAGKISGFFGRGGKFLDAIGVYLEP
As for B6, the “anti-HIV activity, in words” value in [7] is reported as “marked loss”. Moreover, in data set [1], the “mitogenicity, in words” value is reported as “marked loss”.

B7: H84W: BanLec mutant, H84 replaced by tryptophan (protein)
chain: MNGAIKVGAWGGNGGSAFDMGPAYRIISVKIFSGDVVDGVDVTFTYYGKTETRHYGGSGGTPHEIVLQEGEYLVGMAGEVANYWGAVVLGKLGFSTNKKAYGPFGNTGGTPFSLPIAAGKISGFFGRGGKFLDAIGVYLEP
Consider B7, for which the “anti-HIV activity, in words” value in [7] is “minimal effects”. Further, in data set [1], the “mitogenicity, in words” value is on record as “minimal effects”.

B8: H84L: BanLec mutant, H84 replaced by leucine (protein)
chain: MNGAIKVGAWGGNGGSAFDMGPAYRIISVKIFSGDVVDGVDVTFTYYGKTETRHYGGSGGTPHEIVLQEGEYLVGMAGEVANYLGAVVLGKLGFSTNKKAYGPFGNTGGTPFSLPIAAGKISGFFGRGGKFLDAIGVYLEP
As to B8, in [7], the “anti-HIV activity, in words” value is reported as “marked loss”. The “mitogenicity, in words” value in [1] was “marked loss”.

B9: H84T: BanLec variant in which the histidine at position 84 is replaced by a threonine (protein)
chain: MNGAIKVGAWGGNGGSAFDMGPAYRIISVKIFSGDVVDGVDVTFTYYGKTETRHYGGSGGTPHEIVLQEGEYLVGMAGEVANYTGAVVLGKLGFSTNKKAYGPFGNTGGTPFSLPIAAGKISGFFGRGGKFLDAIGVYLEP
Regarding B9, the minimal agglutination concentration in data set [8] stood at 487 µg/mL. Also, in data set [9], the “cell surface expression of activation marker CD69” value is “very little upregulation”. Further, in data set [7], the “inhibition of HIV replication (IC50), in words” value is reported as “low nanomolar range”. Further, the “anti-HIV inhibition relative to WT BanLec” value in [7] (multiple different isolates of HIV) was “equal to or within one log”. In addition, in data set [10], the cytokine/chemokine production result is given as “markedly reduced production of cytokines”. Besides, the “inhibition of replication of 1918 H1N1 virus” value in [11] is “very active and equally inhibited replication”. Further, in [12], the “mice with detectable levels of viral RNA in the plasma” value is “none of the mice”. Besides, in data set [13], the “inhibition of replication of H5N1 avian influenza virus” value is “very active and equally inhibited replication”. Also, the “aggregation over time in solution” value in data set [14] was “tendency to aggregate over time”. Also, the “stimulation of proliferation of lymphocytes” value in [1] (concentrations up to 1 μM) was “did not stimulate the proliferation of lymphocytes”.

B10: H84Q: BanLec mutant, H84 replaced by glutamine (protein)
chain: MNGAIKVGAWGGNGGSAFDMGPAYRIISVKIFSGDVVDGVDVTFTYYGKTETRHYGGSGGTPHEIVLQEGEYLVGMAGEVANYQGAVVLGKLGFSTNKKAYGPFGNTGGTPFSLPIAAGKISGFFGRGGKFLDAIGVYLEP
Regarding B10, the “anti-HIV activity, in words” value in [7] is listed as “marked loss”. In addition, the “mitogenicity, in words” value in data set [1] was “marked loss”.

B11: H84F: BanLec mutant, H84 replaced by phenylalanine (protein)
chain: MNGAIKVGAWGGNGGSAFDMGPAYRIISVKIFSGDVVDGVDVTFTYYGKTETRHYGGSGGTPHEIVLQEGEYLVGMAGEVANYFGAVVLGKLGFSTNKKAYGPFGNTGGTPFSLPIAAGKISGFFGRGGKFLDAIGVYLEP
Consider B11, for which the “anti-HIV activity, in words” value in data set [7] is listed as “minimal effects”. For the same molecule, in data set [1], the “mitogenicity, in words” value is given as “minimal effects”.
